Measurements reported in patent US20030194403A1.
pIC50: −log10 of the molar value.

Target: soluble epidermal growth factor receptor (EGFR), purified from A431 cells (Sigma E 3641) (human) (UniProt P00533)
Experiment: ELISA, inhibition of EGF-biotin binding to immobilized EGFR (FIG. 8)

Substance “m225, a mouse IgG2a anti-EGFR antibody (hybridoma ATCC HB-8508)” has a pIC50 of 7.52.
